This passage reports stoichiometry N results from publication PMC4634129.

Assay [1] has as its target RsPIPS-Δ6N (chimeric construct: Af2299 extramembrane domain fused to the N-terminus of PIP synthase (Archaeoglobus fulgidus | Renibacterium salmoninarum)). The experiment in a line: crystal structure; RsPIPS-Δ6N, apo, lipidic cubic phase (monoolein), 22 °C, 20% PEG 400, 0.1 M MES pH 6.7, 0.2 M lithium sulfate; space group P 21 21 2, one protomer in the asymmetric unit; 2.5 Å.

Assay [2] concerns the target RsPIPS-FL (chimeric construct: Af2299 extramembrane domain fused to the complete RsPIPS sequence abs (Archaeoglobus fulgidus | Renibacterium salmoninarum)). Put plainly: crystal structure; RsPIPS-FL with CDP-DAG, lipidic cubic phase (2% CDP-dioleoylglycerol/98% monoolein), 22 °C, 30% PEG 300, 0.1 M MES pH 6.0, 0.1 M NaCl, 0.1 M MgCl2; space group P 21, two dimers in the asymmetric unit; 3.6 Å.

“RsPIPS-Δ6N (chimeric construct: Af2299 extramembrane domain fused to the N-terminus of PIP synthase (enzyme)” gave a stoichiometry N in assay [1] of 2. In assay [2], “RsPIPS-FL (chimeric construct: Af2299 extramembrane domain fused to the complete RsPIPS sequence abs (enzyme)” returned a stoichiometry N of 2.

By stoichiometry N is commonly meant a count of units in the complex or per binding partner.
